Measurements reported in patent publication US20190234935A1 (Janssen / Centocor, published 2019).

What was measured:
Experiment in all cases: Retrogenix cell microarray on HEK293 cells
[1] = molecular target: T1, GFRα3 (Retrogenix library, on HEK293 cells) (human, UniProt O60609 32-374)
T1 construct: whole, on cells
T1 sequence (looked up): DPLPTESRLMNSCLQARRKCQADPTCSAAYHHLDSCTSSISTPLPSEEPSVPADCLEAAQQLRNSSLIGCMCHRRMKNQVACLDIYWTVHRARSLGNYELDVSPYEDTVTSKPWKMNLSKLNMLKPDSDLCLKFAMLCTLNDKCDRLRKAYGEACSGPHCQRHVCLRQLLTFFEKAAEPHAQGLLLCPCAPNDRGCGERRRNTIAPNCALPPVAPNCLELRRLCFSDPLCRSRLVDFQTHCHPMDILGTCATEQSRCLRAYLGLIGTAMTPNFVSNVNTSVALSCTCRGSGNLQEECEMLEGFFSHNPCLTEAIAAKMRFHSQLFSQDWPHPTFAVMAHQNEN
Procedure: (§1) In parallel, two studies were performed at Retrogenix Ltd (Whaley Bridge, High Peak, Derbyshire, UK) using Retrogenix' Cell Microarray technology to screen for binding partners for the Fc-GDF15 fusion molecule. Two studies were performed to screen Retrogenix's plasma membrane protein library, first on 3500 proteins and second on an additional 993 proteins, with total number of proteins screened being 4493. A background screen was performed prior to the primary screen to detect the background level of binding of the test ligand Fc-GDF15 at 2, 5, and 20 ug/ml with blank slides coated with live HEK293 cells and detected by using an AlexaFluor647 anti-Fc antibody. In the primary screen, vectors encoding each full-length human plasma membrane protein in the library were arrayed in duplicates on Retrogenix's cell microarray slides (referred to as ‘slide-set’). Three replicate slide-set were used in the primary screen. Control expression vector (pIRES-hEGFR-IRES-ZsGreen1) was spotted in quadruplicate on every slide to ensure that a minimal threshold of transfection efficiency had been achieved or exceeded on every slide. HEK293 cells were used for reverse transfection in live conditions. The test ligand Fc-GDF15 was added at the concentration of 20 ug/ml to each slide set. After the addition of test ligand, cell fixation was performed and the AlexaFluor647 anti-Fc antibody was used for binding detection. Fluorescent images were analyzed using ImageQuant software (GE) and a protein ‘hit’ is defined as a duplicate spot showing a raised signal compared to background levels by visual inspection using the images gridded on the ImageQuant software. Hits identified in the primary screen were tested in a confirmation screen, where all vectors encoding the hits in at least one of the three replicate primary screening slide-sets were arrayed on new slides. Confirmation screening was performed similar to the primary screening, with the addition of control samples for binding Fc. Binding of cells overexpressing CD86 to human CTLA4 fused to human Fc, served as a positive control, and binding to Fc alone served as a negative control.

[2] = molecular target: T2, GFRα2 (Retrogenix library, on HEK293 cells) (human, UniProt O00451 22-444)
T2 construct: whole, on cells
T2 sequence (looked up): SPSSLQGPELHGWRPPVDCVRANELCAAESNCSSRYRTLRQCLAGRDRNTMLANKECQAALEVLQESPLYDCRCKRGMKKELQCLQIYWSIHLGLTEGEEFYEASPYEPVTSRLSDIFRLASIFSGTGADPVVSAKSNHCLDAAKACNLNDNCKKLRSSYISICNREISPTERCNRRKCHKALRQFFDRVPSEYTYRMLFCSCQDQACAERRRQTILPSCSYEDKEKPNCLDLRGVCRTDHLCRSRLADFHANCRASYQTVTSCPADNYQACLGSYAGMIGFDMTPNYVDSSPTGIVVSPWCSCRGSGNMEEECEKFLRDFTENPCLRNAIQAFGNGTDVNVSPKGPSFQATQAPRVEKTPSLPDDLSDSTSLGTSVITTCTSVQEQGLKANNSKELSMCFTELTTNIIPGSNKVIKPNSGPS
Procedure: as §1

[3] = molecular target: T3, GFRα1 (Retrogenix library, on HEK293 cells) (human, UniProt P56159 25-429)
T3 construct: whole, on cells
T3 sequence (looked up): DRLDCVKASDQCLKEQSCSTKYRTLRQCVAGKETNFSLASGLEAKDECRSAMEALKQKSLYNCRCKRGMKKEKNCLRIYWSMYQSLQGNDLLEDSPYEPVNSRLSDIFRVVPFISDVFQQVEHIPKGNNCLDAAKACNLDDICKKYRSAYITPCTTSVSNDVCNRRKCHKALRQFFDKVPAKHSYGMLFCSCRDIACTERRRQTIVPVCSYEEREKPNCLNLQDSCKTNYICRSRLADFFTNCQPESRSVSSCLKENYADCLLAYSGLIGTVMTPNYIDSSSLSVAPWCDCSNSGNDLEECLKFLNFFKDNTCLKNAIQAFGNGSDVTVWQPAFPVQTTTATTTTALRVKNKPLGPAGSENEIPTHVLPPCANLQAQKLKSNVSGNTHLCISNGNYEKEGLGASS
Procedure: as §1

[4] = molecular target: T4, GFRα4 (Retrogenix library, on HEK293 cells) (human, UniProt Q9GZZ7 21-278)
T4 construct: whole, on cells
T4 sequence (looked up): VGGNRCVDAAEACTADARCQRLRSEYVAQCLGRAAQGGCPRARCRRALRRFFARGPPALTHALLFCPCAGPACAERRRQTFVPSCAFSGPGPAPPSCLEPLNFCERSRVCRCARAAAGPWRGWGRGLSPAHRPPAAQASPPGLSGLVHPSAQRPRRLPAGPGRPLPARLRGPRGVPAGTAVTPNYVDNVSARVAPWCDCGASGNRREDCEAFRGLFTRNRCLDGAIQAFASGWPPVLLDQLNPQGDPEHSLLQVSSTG
Procedure: as §1

Measured: binding result

B1: heterodimeric Fc-GDF15 fusion molecule (Fc fusion)
chain 1: CPPCPAPEAAGGPSVFLFPPKPKDTLMISRTPEVTCVVVDVSQEDPEVQFNWYVDGVEVHNAKTKPREEQFNSTYRVVSVLTVLHQDWLNGKEYKCKVSNKGLPSSIEKTISKAKGQPREPQVYTLPPSQEEMTKNQVSLSCAVKGFYPSDIAVEWESNGQPENNYKTTPPVLDSDGSFFLVSRLTVDKSRWQEGNVFSCSVMHEALHNHYTQKSLSLSLGKGSGGGARNGDHCPLGPGRCCRLHTVRASLEDLGWADWVLSPREVQVTMCIGACPSQFRAANMHAQIKTSLHRLKPDTVPAPCCVPASYNPMVLIQKTDTGVSLQTYDDLLAKDCHCI
chain 2: CPPCPAPEAAGGPSVFLFPPKPKDTLMISRTPEVTCVVVDVSQEDPEVQFNWYVDGVEVHNAKTKPREEQFNSTYRVVSVLTVLHQDWLNGKEYKCKVSNKGLPSSIEKTISKAKGQPREPQVYTLPPSQEEMTKNQVSLWCLVKGFYPSDIAVEWESNGQPENNYKTTPPVLDSDGSFFLYSRLTVDKSRWQEGNVFSCSVMHEALHNHYTQKSLSLSLGK
notes: also called Fc-GDF15 ligand
no binding (tested: 20 ug/ml): all assays above
